Test results taken from patent US20020098193A1.

What was measured:
[1] = target: Staphylococcal protein A (Staphylococcal) (UniProt P38507); test: direct binding of 125I-Fc-hinge fragments to SpA-agarose, pH 7.5
[2] = target: recombinant soluble mouse FcRn (mouse) (UniProt Q61559); test: inhibition of 125I-sFcRn binding to murine IgG1-Sepharose; molar ratio of inhibitor/FcRn given as 1/1000
[3] = target: recombinant soluble mouse FcRn (mouse) (UniProt Q61559); test: inhibition of 125I-sFcRn binding to murine IgG1-Sepharose; molar ratio of inhibitor/FcRn given as 1/500
[4] = target: recombinant soluble mouse FcRn (mouse) (UniProt Q61559); test: SPR (BIAcore 2000), FcRn coupled to CM5 chip, Fc-hinge 100-300 nM in flow, pH 6.0
[5] = target: complete murine IgG1 molecule (mouse); test: 125I-sFcRn on mIgG1-Sepharose, incubation at pH 7.5 (958,958 cpm added)
[6] = target: complete murine IgG1 molecule (mouse); test: 125I-sFcRn on mIgG1-Sepharose, incubation at pH 7.5 (931,302 cpm added)
[7] = target: complete murine IgG1 molecule (mouse); test: 125I-sFcRn on mIgG1-Sepharose, incubation at pH 6.0 in presence of 500 ug free mIgG1 (937,985 cpm added)
[8] = target: complete murine IgG1 molecule (mouse); test: 125I-sFcRn on mIgG1-Sepharose, incubation at pH 7.5 (943,936 cpm added)
[9] = target: complete murine IgG1 molecule (mouse); test: 125I-sFcRn on mIgG1-Sepharose, incubation at pH 6.0 (913,948 cpm added)
[10] = target: complete murine IgG1 molecule (mouse); test: 125I-sFcRn on mIgG1-Sepharose, incubation at pH 6.0 (937,685 cpm added)
[11] = target: T1, FcRn of neonatal mouse intestine (mouse) (UniProt Q61559); test: cell-based or functional assay
T1 sequence (looked up): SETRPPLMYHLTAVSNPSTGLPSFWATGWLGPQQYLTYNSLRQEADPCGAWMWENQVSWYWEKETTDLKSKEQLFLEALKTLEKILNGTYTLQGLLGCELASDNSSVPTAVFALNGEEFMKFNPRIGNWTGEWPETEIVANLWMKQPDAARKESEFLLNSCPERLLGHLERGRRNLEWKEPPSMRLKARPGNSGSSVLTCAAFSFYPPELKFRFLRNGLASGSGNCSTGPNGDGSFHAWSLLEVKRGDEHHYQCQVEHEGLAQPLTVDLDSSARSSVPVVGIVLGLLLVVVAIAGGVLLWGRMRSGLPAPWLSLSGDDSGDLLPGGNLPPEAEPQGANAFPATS
T1 sequence (b2m, looked up): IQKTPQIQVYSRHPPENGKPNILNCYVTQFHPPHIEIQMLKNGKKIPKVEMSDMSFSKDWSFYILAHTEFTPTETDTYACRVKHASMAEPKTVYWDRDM

Substance: H310A and H435A
- SpA binding, % of WT Fc-hinge [1]: 9 to 12 % of WT

Substance: wild type (WT) Fc-hinge fragment derived from murine IgG1 (from UniProt P01868 98-324)
- % inhibition [2]: 34.1%
- % inhibition [3]: 18.4%
- Kd [4]: 7.44 nM
- koff [4]: 0.00461 s⁻¹
- kon [4]: 620000 M⁻¹ s⁻¹

Substance: recombinant soluble mouse FcRn (from UniProt Q61559 22-290; P01887 21-119) (receptor)
- bound radioactivity [5]: 12300 cpm
- bound radioactivity after pH 7.5 wash [5]: 9470 cpm
- bound radioactivity [6]: 19600 cpm
- bound radioactivity after pH 7.5 wash [6]: 16800 cpm
- bound radioactivity [7]: 70700 cpm
- bound radioactivity after pH 7.5 wash [7]: 26500 cpm
- bound radioactivity [8]: 11600 cpm
- bound radioactivity after pH 7.5 wash [8]: 10300 cpm
- bound radioactivity [9]: 271000 cpm
- bound radioactivity after pH 7.5 wash [9]: 42600 cpm
- bound radioactivity [10]: 228000 cpm
- bound radioactivity after pH 7.5 wash [10]: 42700 cpm

Substance: bovine serum albumin (from UniProt P02769 25-607)
- Inhibition of transmission (%) of radiolabeled mIgG1 across the intestine of neonatal mice [11]: 8.9%

Substance: HQ-310/HN-433 mutant Fc-hinge fragment (from UniProt P01868 98-324)
- % inhibition [2]: 4%
- % inhibition [3]: 0.2%

Substance: Fc fragment of murine IgG1 produced by papain digestion (from UniProt P01868 98-324)
- Inhibition of transmission (%) of radiolabeled mIgG1 across the intestine of neonatal mice [11]: 62.5%

Substance: I253A mutant Fc-hinge fragment (from UniProt P01868 98-324)
- % inhibition [2]: 6.5%
- % inhibition [3]: 2.3%

Substance: HN-433 mutant Fc-hinge fragment
- Inhibition of transmission (%) of radiolabeled mIgG1 across the intestine of neonatal mice [11]: 44.4%

Substance: Fc-hybrid (heterodimer of WT Fc-hinge and HQ-310/HN-433 mutant)
- Inhibition of transmission (%) of radiolabeled mIgG1 across the intestine of neonatal mice [11]: 21.5%

Substance: HQ-310 mutant Fc-hinge fragment
- % inhibition [2]: 6.1%
- % inhibition [3]: 1.6%
- Inhibition of transmission (%) of radiolabeled mIgG1 across the intestine of neonatal mice [11]: 8.9%
